In paper doi:10.1101/2020.04.07.029900, “Pat1 increases the range of decay factors and RNA bound by the Lsm1-7 complex” (bioRxiv, 2020):

Columns and labels:
Lsm1-7 complex = target: T1, Lsm1-7 complex (S. pombe, UniProt P87173 1-140; O94408 1-96; Q9Y7M4 1-93; O14352 1-121; O42978 1-80; Q9UUI1 1-75; …); experiment: SEC; PatMC co-expressed with His6-Lsm1-7 in E. coli, co-purified on Ni-NTA and heparin, TEV, then preparative Superdex 200 16/60 in 400 mM NaCl, 20 mM HEPES 7.0, 1 mM DTT; SDS-PAGE of the complex; conditions: both partners purified
T1 construct: Lsm1, S. pombe; from a polycistron of all seven Lsm proteins; Lsm2, S. pombe; Lsm3, S. pombe; Lsm4, S. pombe; Lsm5, S. pombe; Lsm6, S. pombe; Lsm7, S. pombe; Expected mass of the monomeric complex 81 kDa; In the droplet experiment 0.1 uM of it carried Alexa Fluor 555 maleimide; In the co-purification with PatMC the His6 tag on Lsm1 was present on Ni-NTA and cut by TEV before gel filtration; also …
T1 sequence (Q9Y7M4 whole entry, chain 3 of 2): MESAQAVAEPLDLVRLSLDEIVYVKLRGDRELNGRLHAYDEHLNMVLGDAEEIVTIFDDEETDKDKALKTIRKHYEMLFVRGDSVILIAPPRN
T1 sequence (O42978 whole entry, chain 5 of 2): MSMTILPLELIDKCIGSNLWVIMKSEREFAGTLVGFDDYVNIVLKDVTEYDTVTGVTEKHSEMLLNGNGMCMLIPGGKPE

[1] = target: the molecule itself; experiment: AUC; sedimentation velocity, 9.3 uM PatMC/Lsm1-7 without RNA, 250 mM NaCl, 20 mM HEPES pH 7.0, 1 mM DTT, 30,000 rpm, 10-12 hours
[2] = target: the molecule itself; experiment: AUC; sedimentation velocity, 9.3 uM PatMC/Lsm1-7 with stoichiometric A15 RNA, 250 mM NaCl, 20 mM HEPES pH 7.0, 1 mM DTT, 30,000 rpm, 10-12 hours

Row | Binder | binding result (Lsm1-7 complex) | stoichiometry N [1] | stoichiometry N [2]
1 | PatMC (middle and C-terminal domains of Pat1, residues 296-754) (domain or fragment, S. pombe, UniProt O42958 296-754, looked up, Pat1, S. pombe, middle and C-terminal domains (PatMC), residues 296-754; codon optimized gene in site two of pET-Duet; No tag is told for PatMC in the co-expression construct; source: E. coli BL21(DE3)*, co-expressed with Lsm1-7 from pET-Duet, co-purified (Ni-NTA, heparin, Superdex 200)) LDEKRQKLERDHMLMAQCAGLMTRSDKSFIARIQISQLMSEDPESDDFYYRVYSIIRGRKPSEEEASHFIQTYLGPSNNRRRGRRSENPMQKLQQQLQRLVSSAKERPKATQLSLEGALGKIAVNTVRTPRQLLNVKRPTEPASSNSSLNNFSGFSTKKDVLHAIEKVYDLLLDFEQALRKASTLETTDQEQIDTWKTTLSEKLESIWKALYINESLEASSKTRPPFISIISHPKGMRLLPRLFPHLSKEQQISILKVVVYNFDSLDIVLRGTFDVNGELPLDVVSEMSSFTQFIIPPLLTIVNELDLETINNLFSQLLNRTNAVYLIQTKIGLSFLTLFISRAEILKQSGTVNQNEKEEWENTFNVMFNRVKGHFSTVFPPPNARAYADESYPWEFLAACATAASSEQHFTLVSETRDRVLDNIITSKRAPSEIAVVRISNVNLFLNAMGLDARQLSA | binds | – | –
2 | PatMC/Lsm1-7 complex (complex, Pat1, S. pombe, middle and C-terminal domains (PatMC), residues 296-754; codon optimized gene in site two of pET-Duet; Lsm1, S. pombe; from a polycistron of all seven Lsm proteins; Lsm2, S. pombe; Lsm3, S. pombe; Lsm4, S. pombe; Lsm5, S. pombe; Lsm6, S. pombe; Lsm7, S. pombe; Heterooctamer, expected mass of the monomeric complex 133 kDa; TEV was added before gel filtration to remove the His6 tag …) chain 1: LDEKRQKLERDHMLMAQCAGLMTRSDKSFIARIQISQLMSEDPESDDFYYRVYSIIRGRKPSEEEASHFIQTYLGPSNNRRRGRRSENPMQKLQQQLQRLVSSAKERPKATQLSLEGALGKIAVNTVRTPRQLLNVKRPTEPASSNSSLNNFSGFSTKKDVLHAIEKVYDLLLDFEQALRKASTLETTDQEQIDTWKTTLSEKLESIWKALYINESLEASSKTRPPFISIISHPKGMRLLPRLFPHLSKEQQISILKVVVYNFDSLDIVLRGTFDVNGELPLDVVSEMSSFTQFIIPPLLTIVNELDLETINNLFSQLLNRTNAVYLIQTKIGLSFLTLFISRAEILKQSGTVNQNEKEEWENTFNVMFNRVKGHFSTVFPPPNARAYADESYPWEFLAACATAASSEQHFTLVSETRDRVLDNIITSKRAPSEIAVVRISNVNLFLNAMGLDARQLSA chain 2: MNQATQIIPFTTSGSLVDYVDRKVIVVLRDGKKLIGILRSFDQFANLMLQYTIERIYVDDMYGDIDRGVYIVRGENVVLLGELDLDKEYDAVKQLRRMPAEELYPLAKLHEEEKKKNIREKGKYLHSVGFSVDGGHDDLY chain 3: MLFYSFFKTLIDTEVTVELKNDMSIRGILKSVDQFLNVKLENISVVDASKYPHMAAVKDLFIRGSVVRYVHMSSAYVDTILLADACRRDLANNKRQ chain 4: not shown chain 5: MLPLTLLNATQGRPILVELKNGETFNGHLENCDNYMNLTLREVIRTMPDGDKFFRLPECYIRGNNIKYLRIQDEVLSQVAKQQAQQRENRGSRFRGRGQRGRGNYGHTAPNRRGRGRGGHM chain 6: not shown chain 7: MDSSPNEFLNKVIGKKVLIRLSSGVDYKGILSCLDGYMNLALERTEEYVNGKKTNVYGDAFIRGNNVLYVSALDD chain 8: MSSLQKRPGPGNSSQPTERPRKESILDLSRYQDQRIQATFTGGRQITGILKGFDQLMNLVLDDVEEQLRNPEDGKLTGAIRKLGLVVVRGTTLVLIAPMDGSEEIPNPFVQAE | – | 2 | 4
